According to US20240166738A1 (Alector, published 2024):
Positions count from the first letter of the chain named.

B1: TM-17 (antibody, V domains shown)
VH: QVQLQQSGAELIRPGTSVKVSCKASGYAFTDYLIEWVKQRPGQGLEWIGVINPGSGGTNYNEKFKGKAKLTADKSSSTAYMQLSSLTSEDSAVYFCVRSSYGVYVAYPMDYWGQGTSVTVSS
VL: DIQMTQSPSSLSASLGERVSLTCRASQDIGSNLNWLQQEPDGTIKRLIYATSSLDSGVPKRFSGSRSGSDYSLTISSLESEDFVDYYCLQYASSPRTFGGGTKLEIK
B2: TM-3 (antibody, V domains shown)
VH: QVTLKESGPGIVQPSQTLSLTCSFSGFSLNTLGRGVGWIRQPSGKGLEWLAKIWWNDDKFYYPALKSRLTISKDTSKNQIFLKIANVDTADSATYYCARIAGGTGAAYWGQGTTLTVSS
VL: DIVMTQAAFSNPVTLGTSASISCRSSKSLLHSNGITYLYWYLQKPGQSPQLLISQMSSLASGVPDRFSSGGSGTDFTLRISRVEAEDVGVFYCAQNLELPWTFGGGTKLELK
B3: TM-9 (antibody, V domains shown)
VH: EVQLVESGGDLVKPGGSLKLSCVASGFTFSGYGMSWVRQTPDKRLEWVATISSGSFYIYYPDSVKGRLTVSRDNAKNTLYLQMSSLKSEDTAIYYCARQNFYYGCEDYWGQGTTLTVSS
VL: B2 VL with S54Y, S58N, D65N, G70S, F91Y, L111I
B4: TM-62 (antibody, V domains shown)
VH: QVQLQQPGTELVRPGSSVKLSCKAAGYTFTRYWMHWVKQRPIQGLEWIGNIDPSDSETQYNPKFKDKATLTVDRSSSTAYMHLSSLTSEDSAVYYCARLTTLDYAMDYWGQGTSVTVSS
VL: QIVLTQSPAIMSASPGEKVTISCSASSSVSYMYWYQQKAGSSPKPWIHRTSNLASGVPARFSGSGSGTSYSLTIRSMEAEDAATYYCQQYHSYPPTFGVGTKLELK
notes: mouse hybridoma mAb
B5: TM-27 (antibody, V domains shown)
VH: QVQLQQSGAELVRPGTSVKVSCKASGYALTNYLIEWVKQRPGQGLEWIGVINPGSGSTKYNEKFKGKATLTADKSSSTAYMQLSSLTSEDSAVYFCARIIYDHDWYFDVWGTGTTVTVSS
VL: B4 VL with V29I, A39P, H48Y, N52T, R75S, P95R, V99G, L105I
notes: mouse hybridoma mAb
B6: TM-49 (antibody, V domains shown)
VH: B4 VH with T9A, A25S, Y32F, E57Q, Q59H, P62Q, R74K, H82Q, T100I, L102V
VL: B4 VL with A39P, A59V, R75S, V99A
notes: mouse hybridoma mAb
B7: TM-70 (antibody, V domains shown)
VH: EVQLVESGGALVKPGGSLKLSCAASGFTFSNYAMSWVRQTPEKRLEWVATIGYGGSYSYYPDSVKGRFTISRDNAKYTLYLQMSGLRSEDTALYYCARQDSNYEGVWFAYWGQGTLVT
VL: not shown
B8: TM-41 (antibody, V domains shown)
VH: EVQLQQSGAELVKPGASIKLSCTASGFNIKDCYMHWVKQRTEQGLEWIGRIDPEDGTTNFAPKFQDRATITADTSSNTAYLQLTSLTSEDTAVYYCAREWDSGAYWGQGTLVTVSA
VL: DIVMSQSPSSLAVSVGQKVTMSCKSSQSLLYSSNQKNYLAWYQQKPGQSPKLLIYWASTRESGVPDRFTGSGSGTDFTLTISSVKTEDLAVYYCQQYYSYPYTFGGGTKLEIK
B9: TM-44 (antibody, V domains shown)
VH: EVQLVESGGGLVKPGGSLKLSCAASGFTFSDYGMHWVRQAPEKGLEWVAYISSGSSTIYYADTVKGRFTISRDNAKNTLFLQMTSLRSEDTAMYYCARNYGSPYAMDYWGQGTSVTVSS
VL: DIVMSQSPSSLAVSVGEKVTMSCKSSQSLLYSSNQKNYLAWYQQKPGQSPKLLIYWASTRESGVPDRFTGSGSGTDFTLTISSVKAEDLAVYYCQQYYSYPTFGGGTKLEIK
B10: TM-23 (antibody, V domains shown)
VH: QVQLQQSGAELIRPGTSVKVSCKASGYAFTNYLIEWVKKRPGQGLEWIGVINPGSGITNYNEKFKGKATLTADKSSSTAYMQLSSLTSEDSAVYFCARSDFITTVVADYWGQGTTVTVSS
VL: DIVVTQTPLSLPVSFGDQVSISCRSSQSLTNYYGNTYLSWYLHKPGQSPQLLIYGISNRFSGVPDRFSGSGSGTDFTLKISTIKPEDLGMYYCLQGTHQPRTFGGGTKLEIK
B11: TM-82 (antibody, V domains shown)
VH: B10 VH with I12V, K19R, V37I, K39Q, N59D, N61S, T69R, E89D, A97T, D100P
VL: B10 VL with I2V, T30A, Y32T, K44T, Y54F, M90V, Q99P, I111M
B12: TM-12 (antibody, V domains shown)
VH: EVQLQQSGAELMRPGASVKLSCTASGFNIQDYYMYWVKQRPEQGLEWIGRIDPEDGDAEYAPKFQGKATMTADTSSNTAYLQLSSLTSEDTAVYYCSTRVIYDGYYRTMDCWGQGTSVTVSS
VL: DVLMTQIPLSLPVSLGDQASISCRSSQTIVHSNGNTYLEWYLKKPGQSPKLLIDKISNRFSGVPDRFSGSGSGTDFTLKISRVEAEDLGVYYCFQGSHVPYTFGGGTKLEIK
B13: TM-50 (antibody, V domains shown)
VH: QVQLKESGPVLVAPSQSLSITCTVSGFSLTNYGVHWVRQPPGKGLEWLGVIWAGGNTNYNSALMSRLSISKDNSKSQVFLKMNSLQTDDTAMYYCAKEAKLLRSYAMDYWGQGTLVTVSA
VL: DVQMTQTTSSLSASLGDRVTISCRASQDINNYLYWYQQKPDGTVKLLIYYTSMLHSGVPSRFSGSGSGTDYSLTISNLEQEDIATYFCQQGSTLMYTFGGGTKLEIK
B14: TM-47 (antibody, V domains shown)
VH: B13 VH with L115S, A120S
VL: DIVMTQSPSSLTVTAGEKVTMSCKSSQSLLNSGNQKNYLTWYQQKPGQPPKLLIYWASTRESGVPDRFTGSGSGTDFTLTISSVQAEDLAVYYCQNDYSYPLTFGAGTKLEIK
B15: TM-74 (antibody, V domains shown)
VH: EVQLQQSGPELVKPGASVKMSCKASGYTFTSYVIHWVKQKPGQGLEWIGFINPNNDGTKYNEKFRGKATLTSDKSSSTAYMELSSLTSEDSAVYYCARPYYDYEGYTMDYGGQGTSVTVSS
VL: DVVMTQSQKFMSTSVEDRVSITCKASQNVRSAVAWYQQKPGQSPKALIYLASNRHTGVPDRFAGSGSGTDFTLTISSVQSEDLADYFCLQHWKYPFTFGSGTKLEIK
B16: TM-34 (antibody, V domains shown)
VH: EVQLVESGGGLVKPGGSLKLSCAASGFSFSDSGMDWVRQAPEKGLEWFAYISSGSSTTHYADTVKGRFIISRDNAKNTLFLQMTSLRSEDTAMYYCVRRDGNYWYFDVWGTGTTVTVSS
VL: QIVLSQSPVILSASPGEKVTMTCRATSSVTYMHWYQLKPGSSPKPWIYATSNLASGVPARFSGSGSGTSYSLTISRVEAEDAATYYCQQWSSNPYTFGGGTKLEIK
B17: TM-66 (antibody, V domains shown)
VH: EVMLVESGGALVEPGGSLKLSCAASGITFSNYAMSWIRQTPEKRLEWVATIGSVGSYTYYPDSVKGRFTISRDNARNTLYLQMSSLRSEDTAMYYCARQEGSSHFDYWGQGTTLTVSS
VL: DVVVTQTPPSLPVSFGDQVSISCRSSQSLVNSYGKTFLSWYLHKPGQSPQLLIYGISNRFSGVPDRFSGSGSGTVFTLKISTIKPEDLGMYYCLQGTHPPLTFGAGTKLEMK
notes: mouse hybridoma mAb
B18: TM-68 (antibody, V domains shown)
VH: EVQLQQSGAELVRPGASVKLSCTASGFNIKDDYMHWVRQRPEQGLEWIGWIDPENGDTEYASKFQGKATMTADTSSNTAYLHLSSLTSEDTAVYYCTKPQTATTCWGQGTLVTVSS
VL: DIVMTQAAFSNPVTLGTSVSISCSSSKSLLHSSGITYLYWYLQRPGQSPQLLIYRMSNLASGVPDRFSGSGSGTDFTLRISRVEAEDVGVYYCAQMLERPWTFGGGTKLEIK
B19: TM-56 (antibody, V domains shown)
VH: QVHLQQSGAELAKPGASVKLSCKASGYTFTSYWMHWVKQRPGQGLEWIGYINPSSGYSKYNQRFKDKATLTADKSSTTAYMHLSSLTYADSAVYYCTREGGSISDWYFDVWGTGTTVTVSS
VL: DIEMTQAAPSVPVTPGESVSISCRSSKSLLQNNGNTYLYWFLQRPGQPPQLLIYRMSNLASGVPDRFSGSGSGTAFTLRISRVEAEDVGVYYCMQHLEYPYTFGGGTKLEIK
notes: mouse hybridoma mAb
B20: TM-39 (antibody, V domains shown)
VH: HVQRQQSGTELAKPGASVKLSCKTSGYTFTDYWMHWIKQRPGQGLEWIGFINPSSGYTKYNQNFKDKATLTADKSSSTAYMQLSSLTYEDSAVFYCAREAGSISDWYFDVWGTGTTVTVSS
VL: B19 VL with E3V, V11I, S28T, Q31N, N32S, E98D, K108Q
B21: TM-4 (antibody, V domains shown)
VH: EVQVQQSGPVLVKPGASVKMSCKASGYTFTDYYMNWVKQSHGKNLEWIGVINPYNGGTSYHQKFKGKATLTVDKSSSTAYMELNSLTSEDSAVYYCARAATVVAGFDYWGQGTTLTVSS
VL: QAVVTQESALTTSPGETVTLTCRSSTGAVTTSNYANWVQEKPDHLFTGLIGGTNNRAPGVPARFSGSLIGDKAALTITGAQTEDEAIYFCVLWYSNHLVFGGGTKLTVL
B22: TM-31 (antibody, V domains shown)
VH: QVQLQQSGAELAKPGASVKVSCKASGYTFISYWMNWVKQRPGQGLEWIGYINPTSGYTRYNQKFKDKATLTADKSSSTAYMQLSSLTYEDSAVYYCARSPPTVVLIGYFDYWGQGTTLTVSS
VL: DIKMTQSPSSMYASLGERVTFTCKASQDINSYLSWFQQKPGKSPKTLIYRGNGLVDGVPSRFSGSGSGQDYSLTISSLEYEDMGIYYCLQYDEFPFTFASGTKLEIK
notes: mouse hybridoma mAb

Target: human TMEM106B (human, UniProt Q9NUM4 2-274); further: test concentration or dose not given here
Test: cell-based or functional assay

| Binder | % Protection from CPE [%] |
| --- | --- |
| B1 | 3.7 |
| B2 | 97.2 |
| B3 | 96.4 |
| B4 | 84.2 |
| B5 | 5.2 |
| B6 | 49.6 |
| B7 | 3.4 |
| B8 | 3.5 |
| B9 | 3.2 |
| B10 | 3.7 |
| B11 | 3.2 |
| B12 | 95.9 |
| B13 | 3.9 |
| B14 | 3.8 |
| B15 | 3.7 |
| B16 | 4.1 |
| B17 | 5.9 |
| B18 | 3.5 |
| B19 | 89.7 |
| B20 | 4.2 |
| B21 | 3.7 |
| B22 | 7.7 |

Target: T1, GST-TMEM106B (truncated, comprising amino acids 122-210 of SEQ ID NO:1) (human, UniProt Q9NUM4 122-210)
T1 construct: GST written first by the name only; also called truncated GST-TMEM106B fusion protein; GST-TMEM106B polypeptide fusion; not shown: GST fusion partner
Test: pre-mix epitope binning, antibody immobilized on chip array

| Binder | binding result |
| --- | --- |
| B4 | no binding (tested: 55 nM antigen (2 ug/mL)) |
| B5 | no binding (tested: 55 nM antigen (2 ug/mL)) |
| B6 | no binding (tested: 55 nM antigen (2 ug/mL)) |
| B17 | no binding (tested: 55 nM antigen (2 ug/mL)) |
| B19 | no binding (tested: 55 nM antigen (2 ug/mL)) |
| B22 | no binding (tested: 55 nM antigen (2 ug/mL)) |
